In publication PMC6264893 (Nature, 2018):

Target: His6-tagged 13C,15N-H1 (human, UniProt P07305 1-194)
Assay: NMR titration

Chain of His6-tagged 13C,15N-H1 (P07305 whole entry): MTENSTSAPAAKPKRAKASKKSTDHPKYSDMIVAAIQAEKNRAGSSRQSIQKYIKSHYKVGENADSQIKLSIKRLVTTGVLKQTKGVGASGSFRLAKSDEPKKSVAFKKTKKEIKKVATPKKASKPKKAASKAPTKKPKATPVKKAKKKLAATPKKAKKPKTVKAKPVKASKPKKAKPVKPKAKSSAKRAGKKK

stoichiometry N: 1
B1: prothymosin α (unlabeled, wildtype) (natural protein, human, UniProt P06454 1-111, looked up)
chain: MSDAAVDTSSEITTKDLKEKKEVVEEAENGRDAPANGNAENEENGEQEADNEVDEEEEEGGEEEEEEEEGDGEEEDGDEDEEAESATGKRAAEDDEDDDVDTKKQKTDEDD
